Results as given in patent US20090053138, “Stabilized Aptamers to Platelet Derived Growth Factor and their Use as Oncology Therapeutics” (published 2009).

Target: PDGF-BB (Homo sapiens, UniProt P01127 P01127:82-190)
Assay: cell_activity; 3T3 proliferation; Table 2 prints 3.45
Conditions: tags: PeproTech; chain copies: 2 (inferred, homodimer)

Chain of PDGF-BB (P01127 82-190, one chain of several): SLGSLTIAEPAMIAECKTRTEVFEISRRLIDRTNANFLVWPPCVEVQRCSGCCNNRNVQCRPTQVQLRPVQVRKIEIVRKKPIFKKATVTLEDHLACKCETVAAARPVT

## CACAGGCTACGGCACGTAGAGCATCACCATGATCCTGTG (ssDNA, 3'-inverted dT) [ARC124]
  IC50: 20.7 nM
